Measurements taken from US6159704.

Experiments:
[1] = target: PP2Ac of COS-1 cells (endogenous PP2A catalytic subunit / PP2A activity); assay: 12CA5 immunoprecipitation from transfected COS-1 cells, PP2A activity on 32P-LRRASVA
[2] = target: PP2Ac of COS-1 cells (endogenous PP2A catalytic subunit / PP2A activity); assay: 12CA5 immunoprecipitation from transfected COS-1 cells, PP2A activity in the precipitate
[3] = target: 32P-labeled synthetic peptide LRRASVA (Kemptide Val^6, Ala^7) (Artificial Sequence)

| Substance | % immunoprecipitated (of PP2A activity) [1] [%] | PP2A activity in immunoprecipitates (mU) [1] [mU] | fold PP2A activity against eRF1 immunoprecipitates [2] [fold] | PP2A activity with 32P-labeled synthetic peptide (LRRASVA) as substrate, with and without 10 nM okadaic acid [3] [U/mg] |
| --- | --- | --- | --- | --- |
| HA-tagged human PR65α expressed in COS-1 cells (from UniProt P30153) | 3.7 | 17 | 10 | – |
| PP2Ac of COS-1 cells (endogenous PP2A catalytic subunit / PP2A activity) (enzyme) | – | – | – | 2.4 |
